Laboratory results as given in paper PMC12256852, “Reversible tuning of membrane sterol levels by cyclodextrin in a dialysis setting” (Biophysical Journal, 2025).

Biological target: the molecule itself
Assay: FRET or BRET; same proteoliposomes after cholesterol delivery by dialysis against cholesterol-loaded mβCD (up to 24 h); protein-to-lipid ratio 1:16,000; 30°C; relative FRET efficiency

B1: MBP-Ire1^(P501-K570, C552S) with a C-terminal cysteine (domain or fragment, Saccharomyces cerevisiae)
chain: PEDLEAYRKKIHEQISRELDEKNQNSLLLKFGSLVYRIIETGVFLLLFLIFSAILQRFKILPPLYVLLSKC
modifications: C-terminal cysteine modified by maleimide chemistry with ATTO514 (FRET donor), ATTO594 (FRET acceptor) or NEM (unlabeled)
notes: Ire1 from Saccharomyces cerevisiae, residues P501 to K570: the entire transmembrane region with the amphipathic helix and the short transmembrane helix; endogenous cysteine 552 replaced by serine; single cysteine introduced at the C-terminal end of the construct for labeling; Donor-labeled (ATTO514) and acceptor-labeled (ATTO594) copies of the same construct were co-reconstituted; also called …
  binding result: binds
